Several values for one entry are separate records, joined by “and”; a condition that tells them apart may be missing. Equal entries are not always repeated. Where two headings read alike, the source gives them in different places.
Columns and labels:
[1] = biological target: HCV E2 ectodomain (eE2), full length, residues 384-656, genotype J6 (HCV genotype J6); test: ITC
[2] = biological target: HCV E2 ectodomain (eE2), full length, residues 384-656, genotype J6 (HCV genotype J6); test: ITC; remark: listed apart in the source

B1: human CD81 large extracellular loop (hCD81-LEL), residues 112-202 (domain or fragment)
chain: GFVNKDQIAKDVKQFYDQALQQAVVDDDANNAKAVVKTFHETLDCCGSSTLTALTTSVLKNNLCPSGSNIISNLFKEDCHQKIDDLFSGKL
[1]
  Kd: 681 nM
  dH: -7.89 kcal/mol and -6.65 kcal/mol
  stoichiometry N: 0.99 and 0.86
[2]
  Kd: 773 nM
